Experimental findings from FireProtDB (doi:10.1021/bi00178a007) are described below.

B1: Tissue-type plasminogen activator, P00750 (parent)
chain: MDAMKRGLCCVLLLCGAVFVSPSQEIHARFRRGARSYQVICRDEKTQMIYQQHQSWLRPVLRSNRVEYCWCNSGRAQCHSVPVKSCSEPRCFNGGTCQQALYFSDFVCQCPEGFAGKCCEIDTRATCYEDQGISYRGTWSTAESGAECTNWNSSALAQKPYSGRRPDAIRLGLGNHNYCRNPDRDSKPWCYVFKAGKYSSEFCSTPACSEGNSDCYFGNGSAYRGTHSLTESGASCLPWNSMILIGKVYTAQNPSAQALGLGKHNYCRNPDGDAKPWCHVLKNRRLTWEYCDVPSCSTCGLRQYSQPQFRIKGGLFADIASHPWQAAIFAKHRRSPGERFLCGGILISSCWILSAAHCFQERFPPHHLTVILGRTYRVVPGEEEQKFEVEKYIVHKEFDDDTYDNDIALLQLKSDSSRCAQESSVVRTVCLPPADLQLPDWTECELSGYGKHEALSPFYSERLKEAHVRLYPSSRCTSQHLLNRTVTDNMLCAGDTRSGGPQANLHDACQGDSGGPLVCLNDGRMTLVGIISWGLGCGQKDVPGVYTKVTNYLDWIRDNMRP

The variants in this data set derive from B1. The settings on record: Homo sapiens; pH 8; Thermal; DSC; Tris - Oac/100mM NaOAc 50 mM; transition: 2; structure 1PML; whole UniProt chain shown.
Turning to Y290F, the Tm turned out to be 81.5 °C and the “change of melting temperature, mutant - wild type (higher = more stable)” value turned out to be 14.8 °C.

In general, Tm refers to the temperature at the midpoint of the melting transition.
